Assay results published in the supplement of paper PMC10567573.

B1: CDC25A (parent)
chain: KKFRTKSRTWAGEKSKREMYSRLK
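Further: lentivirally expressed fusions sorted by FACS into six bins by GFP to DsRed ratio, PSI derived from sequencing read proportions per bin multiplied by bin number.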

Variants of: B1
Experiment: protein stability index of a GFP-peptide fusion (GPS, HEK-293T) (PSI 1-6); higher = more stable
Conditions: c terminus: a fixed tail appended
With KKFRTKSRTWAGEKSKREMYMRLK [S21M] the protein stability index was 3.36. For KKFRTKSRTWAGEKSKREMYARLK [S21A], the protein stability index was 2.97. With KKFRTKSRTWAGEKSKREMYYRLK [S21Y] the protein stability index was 2.01. KKFRTKSRTWAGEKSKREMYNRLK [S21N] gave a protein stability index of 3.21. With KKFRTKSRTWAGEKSKREMYHRLK [S21H] the protein stability index was 2.69. KKFRTKSRTWAGEKSKREMYERLK [S21E] showed a protein stability index of 3.01. Work on KKFRTKSRTWAGEKSKREMYTRLK [S21T] yielded a protein stability index of 2.56. KKFRTKSRTWAGEKSKREMYCRLK [S21C] showed a protein stability index of 2.56. In the case of KKFRTKSRTWAGEKSKREMYGRLK [S21G], the protein stability index is reported as 3.32. In the case of KKFRTKSRTWAGEKSKREMYKRLK [S21K], the protein stability index is reported as 3.08. KKFRTKSRTWAGEKSKREMYQRLK [S21Q] showed a protein stability index of 2.54. KKFRTKSRTWAGEKSKREMYLRLK [S21L] gave a protein stability index of 3.38. Work on KKFRTKSRTWAGEKSKREMYDRLK [S21D] yielded a protein stability index of 2.95. With KKFRTKSRTWAGEKSKREMYIRLK [S21I] the protein stability index was 2.25. Variant KKFRTKSRTWAGEKSKREMYRRLK [S21R] has a protein stability index of 2.73. Variant KKFRTKSRTWAGEKSKREMYPRLK [S21P] has a protein stability index of 2.99. In the case of KKFRTKSRTWAGEKSKREMYFRLK [S21F], the protein stability index is reported as 2.7. For KKFRTKSRTWAGEKSKRLMYSRLK [E18L], the protein stability index was 2.64. In the case of KKFRTKSRTWAGEKSKRTMYSRLK [E18T], the protein stability index is reported as 2.19. Work on KKFRTKSRTWAGEKSKRHMYSRLK [E18H] yielded a protein stability index of 2.71. Work on KKFRTKSRTWAGEKSKRWMYSRLK [E18W] yielded a protein stability index of 4.23. For KKFRTKSRTWAGEKSKRIMYSRLK [E18I], the protein stability index was 3.64. Work on KKFRTKSRTWAGEKSKRCMYSRLK [E18C] yielded a protein stability index of 3.07. Work on KKFRTKSRTWAGEKSKRMMYSRLK [E18M] yielded a protein stability index of 2.87. Variant KKFRTKSRTWAGEKSKRYMYSRLK [E18Y] has a protein stability index of 1.9. In the case of KKFRTKSRTWAGEKSKRKMYSRLK [E18K], the protein stability index is reported as 1.94. In the case of KKFRTKSRTWAGEKSKRQMYSRLK [E18Q], the protein stability index is reported as 2.37. For KKFRTKSRTWAGEKSKRGMYSRLK [E18G], the protein stability index was 2.98. In the case of KKFRTKSRTWAGEKSKRPMYSRLK [E18P], the protein stability index is reported as 2.17. In the case of KKFRTKSRTWAGEKSKRSMYSRLK [E18S], the protein stability index is reported as 2.43. KKFRTKSRTWAGEKSKRFMYSRLK [E18F] showed a protein stability index of 2.88. Variant KKFRTKSRTWAGEKSKRDMYSRLK [E18D] has a protein stability index of 3.12. For KKFRTKSRTWAGEKSKRNMYSRLK [E18N], the protein stability index was 3. With KKFRTKSRTWAGEKSKQEMYSRLK [R17Q] the protein stability index was 3.17. In the case of KKFRTKSRTWAGEKSKCEMYSRLK [R17C], the protein stability index is reported as 3.34. With KKFRTKSRTWAGEKSKNEMYSRLK [R17N] the protein stability index was 2.24. With KKFRTKSRTWAGEKSKTEMYSRLK [R17T] the protein stability index was 3.48. In the case of KKFRTKSRTWAGEKSKHEMYSRLK [R17H], the protein stability index is reported as 3. With KKFRTKSRTWAGEKSKDEMYSRLK [R17D] the protein stability index was 3.6. KKFRTKSRTWAGEKSKKEMYSRLK [R17K] showed a protein stability index of 2.21. Work on KKFRTKSRTWAGEKSKGEMYSRLK [R17G] yielded a protein stability index of 2.99. KKFRTKSRTWAGEKSKIEMYSRLK [R17I] gave a protein stability index of 3.25. Variant KKFRTKSRTWAGEKSKYEMYSRLK [R17Y] has a protein stability index of 3.4. KKFRTKSRTWAGEKSKVEMYSRLK [R17V] showed a protein stability index of 2.97. With KKFRTKSRTWAGEKSKFEMYSRLK [R17F] the protein stability index was 2.86. KKFRTKSRTWAGEKSKPEMYSRLK [R17P] gave a protein stability index of 4.04. With KKFRTKSRTWAGEKSKSEMYSRLK [R17S] the protein stability index was 3.08. With KKFRTKSRTWAGEKSKLEMYSRLK [R17L] the protein stability index was 2.84. With KKFRTKSRTWAGEKSKREMYSNLK [R22N] the protein stability index was 3.81. KKFRTKSRTWAGEKSKREMYSSLK [R22S] gave a protein stability index of 2.79. For KKFRTKSRTWAGEKSKREMYSQLK [R22Q], the protein stability index was 2.83. In the case of KKFRTKSRTWAGEKSKREMYSPLK [R22P], the protein stability index is reported as 2.33. Work on KKFRTKSRTWAGEKSKREMYSCLK [R22C] yielded a protein stability index of 3.17. KKFRTKSRTWAGEKSKREMYSGLK [R22G] gave a protein stability index of 3.92. With KKFRTKSRTWAGEKSKREMYSHLK [R22H] the protein stability index was 3.02. KKFRTKSRTWAGEKSKREMYSLLK [R22L] gave a protein stability index of 2.82. Variant KKFRTKSRTWAGEKSKREMYSFLK [R22F] has a protein stability index of 2.99. KKFRTKSRTWAGEKSKREMYSTLK [R22T] showed a protein stability index of 3.41. With KKFRTKSRTWAGEKSKREMYSDLK [R22D] the protein stability index was 2.49. In the case of KKFRTKSRTWAGEKSKREMYSILK [R22I], the protein stability index is reported as 2.01. Variant KKFRTKSRTWAGEKSKREMYSALK [R22A] has a protein stability index of 2.19. Work on KKFRTKSRTWAGEKSKREMYSMLK [R22M] yielded a protein stability index of 3.13. With KKFRTKSRTWAGEKSKREMYSKLK [R22K] the protein stability index was 2.92. Work on KKFRTKSRTWAGEKSKRENYSRLK [M19N] yielded a protein stability index of 4.2. In the case of KKFRTKSRTWAGEKSKRELYSRLK [M19L], the protein stability index is reported as 2.7. Variant KKFRTKSRTWAGEKSKREPYSRLK [M19P] has a protein stability index of 3.41. KKFRTKSRTWAGEKSKREAYSRLK [M19A] showed a protein stability index of 3.13. For KKFRTKSRTWAGEKSKRETYSRLK [M19T], the protein stability index was 3. For KKFRTKSRTWAGEKSKREWYSRLK [M19W], the protein stability index was 2.77. In the case of KKFRTKSRTWAGEKSKREQYSRLK [M19Q], the protein stability index is reported as 4.14. In the case of KKFRTKSRTWAGEKSKREKYSRLK [M19K], the protein stability index is reported as 4.05. KKFRTKSRTWAGEKSKREDYSRLK [M19D] gave a protein stability index of 4.05. Work on KKFRTKSRTWAGEKSKRERYSRLK [M19R] yielded a protein stability index of 3.44. For KKFRTKSRTWAGEKSKREEYSRLK [M19E], the protein stability index was 3.79. With KKFRTKSRTWAGEKSKREIYSRLK [M19I] the protein stability index was 2.8. KKFRTKSRTWAGEKSKREYYSRLK [M19Y] gave a protein stability index of 3.24. Variant KKFRTKSRTWAGEKSKRESYSRLK [M19S] has a protein stability index of 4.21. Variant KKFRTKSRTWAGEKSKREHYSRLK [M19H] has a protein stability index of 3.54. For KKFRTKSRTWAGEKSKREFYSRLK [M19F], the protein stability index was 3.53. Variant KKFRTKSRTWAGEKSKREMNSRLK [Y20N] has a protein stability index of 3.02. Work on KKFRTKSRTWAGEKSKREMWSRLK [Y20W] yielded a protein stability index of 2.37. KKFRTKSRTWAGEKSKREMISRLK [Y20I] showed a protein stability index of 3.13. Work on KKFRTKSRTWAGEKSKREMQSRLK [Y20Q] yielded a protein stability index of 4.34. With KKFRTKSRTWAGEKSKREMPSRLK [Y20P] the protein stability index was 4.12. KKFRTKSRTWAGEKSKREMSSRLK [Y20S] gave a protein stability index of 4.69. Work on KKFRTKSRTWAGEKSKREMHSRLK [Y20H] yielded a protein stability index of 3.01. In the case of KKFRTKSRTWAGEKSKREMVSRLK [Y20V], the protein stability index is reported as 2.92. For KKFRTKSRTWAGEKSKREMMSRLK [Y20M], the protein stability index was 3.29. In the case of KKFRTKSRTWAGEKSKREMTSRLK [Y20T], the protein stability index is reported as 3.41. KKFRTKSRTWAGEKSKREMKSRLK [Y20K] showed a protein stability index of 4.45. KKFRTKSRTWAGEKSKREMFSRLK [Y20F] gave a protein stability index of 2.88. In the case of KKFRTKSRTWAGEKSKREMLSRLK [Y20L], the protein stability index is reported as 2.33. In the case of KKFRTKSRTWAGEKSKREMDSRLK [Y20D], the protein stability index is reported as 3.35. Work on KKFRTKSRTWAGEKSKREMCSRLK [Y20C] yielded a protein stability index of 3.97.
